Where a name gives a salt, the structure may show the parent alone.
How the values were obtained:
Type in all cases: cell-based, human
GLUT1 = assay: Hypoxia mimetic titration: GLUT1 in MSCs; conditions: different concentrations, FIG. 24
Experimental: Studies were carried out to determine the effect of hypoxia mimicking agents CoCl2 and DFO on MSCs (FIG. 24).

[1] = tested on: CD4+ and CD8+ T-cell division; assay: Lactic acid titration: T-cell division in response to Concanavalin A; conditions: ConA 5 μg/mL, Day 3
Experimental: PBMCs were thawed, as previously described, and stained in HEPES buffered saline at 37° C. for 30 minutes with pHrodo® Red AM (Thermo Fisher) as per manufacturer's instructions (1000× dilution of dye). […] Cells were resuspended in these new media and incubated at 37° C. for 30 minutes. Immediately prior to each flow cytometry reading, each sample was diluted 1:9 with BD Stain Buffer and mixed well. This neutralized external pH and diluted media components without permitting time for intracellular lactate to be exported. […] Cells were plated in 96-well U-bottom plates at 200 000 cells per well. ConA was added to be 5 μg/mL, and PBMCs were analyzed by flow cytometry on Day 3.

T-cells = assay: Lactic acid titration: intracellular pH and scatter of T-cells (pHrodo Red AM); conditions: fresh complete AIM-V media, 30 minutes
IDO [2] = assay: IFN-γ titration: IDO expression in MSCs by flow cytometry; conditions: 48 hours of exposure
Experimental: (§1) Titration studies were carried out to determine whether IFN-γ at different concentrations or for different time periods had differential effects on MSC expression of IDO and/or PD-L1 (FIGS. 22 & 23). […] Thus, the IFN-γ dose could be used in a range of 0.1 ng/mL to 100 ng/mL for future animal and human studies, while still reproducing the same beneficial phenotype, with the lower end of that range more likely to mimic physiologic conditions in humans. […] Therefore, priming of MSCs may be carried out for less than 48 hours to achieve biological effects.

PD-L1 = assay: Onset kinetics of PD-L1 expression in MSCs exposed to IFN-γ; conditions: 10 ng/mL IFN-γ
Experimental: as §1

IDO [3] = assay: Onset kinetics of IDO expression in MSCs exposed to IFN-γ; conditions: 10 ng/mL IFN-γ
Experimental: as §1

[Cl][Co][Cl] [CoCl2, cobalt chloride]
GLUT1 upregulation in MSCs (GLUT1): able to upregulate GLUT 1

CC(=O)N(O)CCCCCNC(=O)CCC(=O)N(O)CCCCCNC(=O)CCC(=O)N(O)CCCCCN [DFO, deferoxamine mesylate/desferrioxamine]
GLUT1 upregulation in MSCs (GLUT1): able to upregulate GLUT 1

C[C@H](O)C(=O)O [lactic acid, L-lactic acid]
T-cell division at lactate 15 mM ([1]; lactate concentration of 15 mM): almost completely eliminated
T-cell division, % of the maximum rate ([1]; lactic acid concentration not given): 30-45%
extracellular lactic acid level at which drop in T-cell pHi started to become pronounced (T-cells): 15 mM

B1: IFN-γ: pro-inflammatory cytokine (Peprotech) used to prime MSCs (protein, UniProt P01579 24-161, looked up)
Interferon gamma: QDPYVKEAENLKKYFNAGHSDVADNGTLFLGILKNWKEESDRKIMQSQIVSFYFKLFKNFKDDQSIQKSVETIKEDMNVKFFNSNKKKRDDFEKLTNYSVTDLNVQRKAIHELIQVMAELSPAAKTGKRKRSQMLFRG
IDO induction at 0.1 ng/mL (IDO [2]; 0.1 ng/mL): significant induction
IFN-γ concentration required for maximum IDO induction (IDO [2]): at least 1 ng/mL
exposure time after which PD-L1 is already upregulated (PD-L1): 6 h
exposure time required for maximum PD-L1 expression (PD-L1): 48 h
exposure time after which IDO is already upregulated (IDO [3]): 6 h
exposure time required for maximum IDO expression (IDO [3]): 48 h

From US20190314417A1, “IMMUNOSUPPRESSIVE MESENCHYMAL CELLS AND METHODS FOR FORMING SAME” (The Trustees of Columbia University In The City of New York, priority 2016, published 2019)
